These results are taken from patent US20230140293A1.

The target of experiment [1] is CH505 TF chimeric SOSIP.III trimer (CH505TFchim.6R.SOSIP.664V4.1) (HIV-1 (CH505 gp120 / BG505 gp41 chimera)). Briefly: kinetics, method not named (FIG. 69); reference CH505 TF gp120.
The target in experiment [2] is CH505 transmitted/founder (TF) gp120 (HIV-1). Briefly: SPR. (In general: Surface plasmon resonance follows binding to a sensor surface in real time, without labels.)
The next experiment addresses CH505 M11 gp120 (HIV-1). Briefly: ELISA, gp120 on plate. For orientation: An ELISA detects its analyte on a solid surface through an enzyme-linked reagent.
Experiment [3] has as its target CH505 w020.14 gp120 (HIV-1). Briefly: ELISA, gp120 on plate.
Experiment [4] addresses CH505 transmitted/founder (TF) gp120 (HIV-1). Briefly: ELISA, gp120 on plate.
The target of experiment [5] is HIV-1 CH0505TF.S365P Env on Env-pseudotyped virus produced in 293S GnTI- cells (HIV-1). Briefly: cell-based or functional assay.
Experiment [6] addresses HIV-1 CH0505TF.N280D Env on Env-pseudotyped virus produced in 293T cells (HIV-1). Briefly: cell-based or functional assay.
Experiment [7] concerns the target HIV-1 CH0505TF.G458Y Env on Env-pseudotyped virus produced in 293S GnTI-/- cells (Man5-enrichment) (HIV-1). Briefly: cell-based or functional assay.
Experiment [8] concerns the target HIV-1 CH0505TF Env on Env-pseudotyped virus produced in 293S/GnTI-/- cells (Man5-enrichment) (HIV-1). Briefly: cell-based or functional assay.
Experiment [9] addresses HIV-1 CH0505TF.G458Y Env on Env-pseudotyped virus produced in 293T cells (HIV-1). Briefly: cell-based or functional assay.
Experiment [10] deals with HIV-1 CH0505TF.S365P Env on Env-pseudotyped virus produced in 293T cells (HIV-1). Briefly: cell-based or functional assay.
In experiment [11] the target is HIV-1 CH0505TF.N280D Env on Env-pseudotyped virus produced in 293S GnTI- cells (HIV-1). Briefly: cell-based or functional assay.
In experiment [12] the target is HIV-1 CH0505TF (CH505 transmitted/founder) Env on Env-pseudotyped virus produced in 293T cells (HIV-1). Briefly: cell-based or functional assay.
For experiment [13], the target named is CH0505TF.gly4 Env, pseudotyped virus produced in 293S GnTI- cells (HIV-1). Briefly: cell-based or functional assay.
Experiment [14] has as its target CH0505TF Env, Env-pseudotyped virus produced in 293T cells (HIV-1). Briefly: cell-based or functional assay.
The target in experiment [15] is CH0505TF.gly3.276 Env, pseudotyped virus produced in 293S GnTI- cells (HIV-1). Briefly: cell-based or functional assay.
Experiment [16] deals with CH0505TF Env, pseudotyped virus produced in 293S GnTI- cells (HIV-1). Briefly: cell-based or functional assay.
For experiment [17], the target named is CH0505TF.gly4.G458Y Env, pseudotyped virus produced in 293T cells (HIV-1). Briefly: cell-based or functional assay.
The target in experiment [18] is HIV-1 Env 426c.TM (N276D.N460D.N463D), Env-pseudotyped virus produced in 293T cells (HIV-1 clade C strain 426c). Briefly: cell-based or functional assay.
The target of experiment [19] is HIV-1 Env 426c.TM4 (S278R.G471S.N460D.N463D), Env-pseudotyped virus produced in 293T cells (HIV-1 clade C strain 426c). Briefly: cell-based or functional assay.
For experiment [20], the target named is HIV-1 Env 426c.SM (N276D), Env-pseudotyped virus produced in 293S GnTI- cells (Man5-enriched) (HIV-1 clade C strain 426c). Briefly: cell-based or functional assay.
In experiment [21] the target is CH0505TF.gly3.461 Env, pseudotyped virus produced in 293S GnTI- cells (HIV-1). Briefly: cell-based or functional assay.
For experiment [22], the target named is CH0505.w4.3 Env, Env-pseudotyped virus produced in 293T cells (HIV-1). Briefly: cell-based or functional assay.
The target of experiment [23] is HIV-1 Env 426c, Env-pseudotyped virus produced in 293S GnTI- cells (Man5-enriched) (HIV-1 clade C strain 426c). Briefly: cell-based or functional assay.
Experiment [24] has as its target CH0505TF.gly3.197 Env, pseudotyped virus produced in 293S GnTI- cells (HIV-1). Briefly: cell-based or functional assay.
Experiment [25] has as its target CH0505TF.gly4 Env, Env-pseudotyped virus produced in 293T cells (HIV-1). Briefly: cell-based or functional assay.
Experiment [26] has as its target CH0505TF.gly3.276 Env, Env-pseudotyped virus produced in 293T cells (HIV-1). Briefly: cell-based or functional assay.
The target of experiment [27] is HIV-1 Env 426c.DM (N460D.N463D), Env-pseudotyped virus produced in 293T cells (HIV-1 clade C strain 426c). Briefly: cell-based or functional assay.
The target of experiment [28] is HIV-1 Env 426c.TM4 (S278R.G471S.N460D.N463D), Env-pseudotyped virus produced in 293S GnTI- cells (Man5-enriched) (HIV-1 clade C strain 426c). Briefly: cell-based or functional assay.
Experiment [29] deals with CH0505TF.G458Y Env, pseudotyped virus produced in 293S GnTI- cells (HIV-1). Briefly: cell-based or functional assay.
In experiment [30] the target is CH0505TF.gly4.G458Y Env, pseudotyped virus produced in 293S GnTI- cells (HIV-1). Briefly: cell-based or functional assay.
Experiment [31] concerns the target HIV-1 Env 426c.SM (N276D), Env-pseudotyped virus produced in 293T cells (HIV-1 clade C strain 426c). Briefly: cell-based or functional assay.
Experiment [32] has as its target CH0505TF.gly3.461 Env, Env-pseudotyped virus produced in 293T cells (HIV-1). Briefly: cell-based or functional assay.
Experiment [33] deals with HIV-1 Env 426c, Env-pseudotyped virus produced in 293T cells (HIV-1 clade C strain 426c). Briefly: cell-based or functional assay.
The target in experiment [34] is HIV-1 Env 426c.DM (N460D.N463D), Env-pseudotyped virus produced in 293S GnTI- cells (Man5-enriched) (HIV-1 clade C strain 426c). Briefly: cell-based or functional assay.
The target of experiment [35] is CH0505TF.gly3.197 Env, Env-pseudotyped virus produced in 293T cells (HIV-1). Briefly: cell-based or functional assay.
Experiment [36] deals with CH0505TF.G458Y Env, Env-pseudotyped virus produced in 293T cells (HIV-1). Briefly: cell-based or functional assay.
Experiment [37] addresses CH0505.w4.3 Env, pseudotyped virus produced in 293S GnTI- cells (HIV-1). Briefly: cell-based or functional assay.
The target in experiment [38] is HIV-1 Env 426c.TM (N276D.N460D.N463D), Env-pseudotyped virus produced in 293S GnTI- cells (Man5-enriched) (HIV-1 clade C strain 426c). Briefly: cell-based or functional assay.
Experiment [39] has as its target CH0505TF G458C Env, pseudotyped virus produced in 293S GnTI- cells (HIV-1). Briefly: cell-based or functional assay.
Experiment [40] has as its target CH0505TF G458R Env, pseudotyped virus produced in 293S GnTI- cells (HIV-1). Briefly: cell-based or functional assay.
In experiment [41] the target is CH0505TF G458W Env, pseudotyped virus produced in 293S GnTI- cells (HIV-1). Briefly: cell-based or functional assay.
Experiment [42] deals with CH0505TF G458K Env, pseudotyped virus produced in 293S GnTI- cells (HIV-1). Briefly: cell-based or functional assay.
Experiment [43] addresses CH0505TF G458S Env, pseudotyped virus produced in 293S GnTI- cells (HIV-1). Briefly: cell-based or functional assay.
The target of experiment [44] is CH0505TF G458D Env, pseudotyped virus produced in 293S GnTI- cells (HIV-1). Briefly: cell-based or functional assay.
Experiment [45] concerns the target CH0505TF G458E Env, pseudotyped virus produced in 293S GnTI- cells (HIV-1). Briefly: cell-based or functional assay.
The target in experiment [46] is CH0505TF G458Y.N280D Env, pseudotyped virus produced in 293S GnTI- cells (HIV-1). Briefly: cell-based or functional assay.
For experiment [47], the target named is CH0505TF G458L Env, pseudotyped virus produced in 293S GnTI- cells (HIV-1). Briefly: cell-based or functional assay.
The target in experiment [48] is CH0505TF G458F Env, pseudotyped virus produced in 293S GnTI- cells (HIV-1). Briefly: cell-based or functional assay.
The target in experiment [49] is CH505 TF chimeric SOSIP.III trimer (CH505TFchim.6R.SOSIP.664V4.1) (HIV-1 (CH505 gp120 / BG505 gp41 chimera)). Briefly: negative stain EM; 1 to 1 ratio of CH103 and gp140.

Usually Kd stands for the free concentration of one partner at which half of the binding sites on the other are occupied at equilibrium, for simple one-to-one binding. In experiment [1], “CH103 lineage unmutated common ancestor (UCA) (antibody)” returned a fold improvement of the off-rate against CH505 TF gp120 of 10 fold. In experiment [2], this substance came in with a Kd of 200 nM. Besides, the log AUC with CH505 M11 gp120 (HIV-1) worked out at 2.6 log AUC; in experiment [3] it was 0.3 log AUC; in experiment [4], 3.5 log AUC.

As to CH235.12 (antibody), the IC50 (µg/ml) in TZM-bl in experiment [5] is 0.01 µg/mL; in experiment [6], 0.06 µg/mL; in [7], less than 0.02 µg/mL; in experiment [8] it was 0.02 µg/mL; in [9] it was 0.01 µg/mL; in [10], 0.03 µg/mL. Also, the IC50 (µg/ml) in TZM-bl in [11] is 0.02 µg/mL; in experiment [12] it was 0.04 µg/mL; in experiment [13], 0.001 µg/mL; in experiment [14], 0.04 µg/mL; in [15] it was 0.005 µg/mL; in experiment [16], 0.015 µg/mL. Further, the IC50 (µg/ml) in TZM-bl in experiment [18] was 0.09 µg/mL; in experiment [19] it was 0.1 µg/mL; in experiment [20], 0.26 µg/mL; in experiment [21] it was 0.002 µg/mL; in experiment [22], 0.04 µg/mL; in experiment [23], greater than 25 µg/mL. The IC50 (µg/ml) in TZM-bl in experiment [24] is 0.003 µg/mL; in experiment [25] it was 0.001 µg/mL; in experiment [26], 0.001 µg/mL; in [27] it was 0.66 µg/mL; in [28], 24.2 µg/mL; in experiment [29] it was 0.003 µg/mL. For the same substance, the IC50 (µg/ml) in TZM-bl was 1.08 µg/mL in experiment [31]; 0.003 µg/mL in experiment [32]; 8.95 µg/mL in experiment [33]; greater than 25 µg/mL in [34]; 0.008 µg/mL in experiment [35]; 0.014 µg/mL in experiment [36]. The IC50 (µg/ml) in TZM-bl in [37] was determined as 0.01 µg/mL; in experiment [38], 0.07 µg/mL. For the same substance, the IC50 (µg/ml) in TZM-bl cells in experiment [17] and in experiment [30] was less than 0.005 µg/mL throughout.

With CH235 UCA2 (antibody), the IC50 (µg/ml) in TZM-bl in experiment [13] is greater than 50 µg/mL; in experiment [14], greater than 50 µg/mL; in experiment [15], greater than 50 µg/mL; in [16] it was greater than 50 µg/mL; in experiment [18] it was greater than 50 µg/mL; in experiment [19], greater than 25 µg/mL. Further, the IC50 (µg/ml) in TZM-bl in [21] is greater than 50 µg/mL; in [22], greater than 25 µg/mL; in experiment [24], greater than 50 µg/mL; in experiment [25], greater than 50 µg/mL; in experiment [26] it was greater than 50 µg/mL; in [28], greater than 25 µg/mL. For the same substance, the IC50 (µg/ml) in TZM-bl in [29] is 0.16 µg/mL; in experiment [32], greater than 50 µg/mL; in experiment [33] it was greater than 50 µg/mL; in experiment [35], greater than 50 µg/mL; in experiment [36] it was greater than 25 µg/mL; in [37] it was greater than 25 µg/mL. In [38], the IC50 (µg/ml) in TZM-bl was greater than 50 µg/mL. Moreover, the IC50 (µg/ml) in TZM-bl cells in experiment [39] was 0.391 µg/mL; in experiment [40], 0.916 µg/mL; in [41], 1.07 µg/mL; in [17], greater than 10 µg/mL; in experiment [42], greater than 10 µg/mL; in experiment [43], greater than 10 µg/mL. The IC50 (µg/ml) in TZM-bl cells in experiment [44] was greater than 10 µg/mL; in experiment [45] it was greater than 10 µg/mL; in experiment [29] it was 0.2 µg/mL; in experiment [30], greater than 10 µg/mL; in experiment [46], greater than 10 µg/mL; in [47], 0.555 µg/mL. This substance also displayed an IC50 (µg/ml) in TZM-bl cells in experiment [48] of 0.746 µg/mL.

Regarding CH103 Fab, in experiment [49], the Fabs bound per trimer (Fab per trimer) came to 3.
